In patent US20060078559A1 (EUROSCREEN S A, published 2006):
Where no end group is shown, it is not given here. [ ]: non-standard residue; d: D form. The star is where a group is joined. For = O=C*

Legend:
[1] = molecular target: T1, human formyl peptide receptor-like 2 (FPRL2) (human) (UniProt P25089); assay: cell-based or functional assay
T1 sequence: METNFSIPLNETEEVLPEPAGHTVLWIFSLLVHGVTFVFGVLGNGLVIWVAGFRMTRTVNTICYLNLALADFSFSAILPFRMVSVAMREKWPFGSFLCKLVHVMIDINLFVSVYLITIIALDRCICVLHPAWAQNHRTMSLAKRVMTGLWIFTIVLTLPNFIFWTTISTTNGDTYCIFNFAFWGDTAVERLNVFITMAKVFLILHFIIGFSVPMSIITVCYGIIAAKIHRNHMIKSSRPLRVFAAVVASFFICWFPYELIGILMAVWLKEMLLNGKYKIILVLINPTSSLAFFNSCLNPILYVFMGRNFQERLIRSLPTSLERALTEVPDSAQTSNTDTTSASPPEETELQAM

[2] = molecular target: T2, human FPR (formyl peptide receptor) (human, UniProt P21462 1-350); assay: cell-based or functional assay
T2 chain: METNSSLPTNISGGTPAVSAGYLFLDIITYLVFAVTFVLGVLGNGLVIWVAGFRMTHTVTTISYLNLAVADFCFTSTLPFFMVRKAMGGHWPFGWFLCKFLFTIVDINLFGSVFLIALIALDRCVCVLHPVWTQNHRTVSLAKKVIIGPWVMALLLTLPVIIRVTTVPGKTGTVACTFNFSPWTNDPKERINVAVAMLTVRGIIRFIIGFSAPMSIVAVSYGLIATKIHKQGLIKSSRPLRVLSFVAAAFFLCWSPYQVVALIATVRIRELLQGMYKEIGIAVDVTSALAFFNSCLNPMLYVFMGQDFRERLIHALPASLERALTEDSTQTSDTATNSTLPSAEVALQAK

[3] = molecular target: T2, human FPR (formyl peptide receptor); assay: cell-based or functional assay
[4] = molecular target: T2, human FPR (formyl peptide receptor); assay: cell-based or functional assay
human FPRL1 (FPR-like 1) [5] = molecular target: T3, human FPRL1 (FPR-like 1) (human, UniProt P25090 1-351); assay: cell-based or functional assay
T3 sequence: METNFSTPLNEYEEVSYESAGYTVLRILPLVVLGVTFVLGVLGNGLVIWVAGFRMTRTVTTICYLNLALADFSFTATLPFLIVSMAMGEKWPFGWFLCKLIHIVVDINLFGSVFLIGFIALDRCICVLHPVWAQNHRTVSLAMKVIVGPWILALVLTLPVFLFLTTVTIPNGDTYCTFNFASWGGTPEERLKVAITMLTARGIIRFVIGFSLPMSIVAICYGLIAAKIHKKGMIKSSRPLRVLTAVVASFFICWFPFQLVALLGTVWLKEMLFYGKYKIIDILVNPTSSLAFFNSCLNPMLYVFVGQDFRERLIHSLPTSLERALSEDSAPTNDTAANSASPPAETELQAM

[6] = molecular target: T1, human formyl peptide receptor-like 2 (FPRL2) (human); assay: competition binding on FPRL2-expressing CHO-K1 cells, tracer F2L-[125I]Tyr
human FPRL1 (FPR-like 1) [7] = molecular target: T3, human FPRL1 (FPR-like 1); assay: cell-based or functional assay; remark: listed apart in the source
[8] = molecular target: T2, human FPR (formyl peptide receptor); assay: competition radioligand binding on FPR-expressing CHO-K1 cells, tracer [125I]-WKYMVm
Method: (§1) FPRL2, FPRL1 and FPR-expressing CHO-K1 cells were plated in 24 wells plates (200,000 cells per well for FPRL2, and 100,000 cells per well for the two other receptors). The next day, the cells were washed twice with a KRH buffer containing 280 mM saccharose and, for FPRL1 and FPR, 0.1% NaN₃. […] Cells were washed twice with ice cold buffer, total radioactivity was recovered with 1 M NaOH and counted in a gamma counter for 2 min.

[9] = molecular target: T4, human formyl peptide receptor-like 2 (FPRL2) (human, UniProt P25089 1-353); assay: cell-based or functional assay
T4 sequence: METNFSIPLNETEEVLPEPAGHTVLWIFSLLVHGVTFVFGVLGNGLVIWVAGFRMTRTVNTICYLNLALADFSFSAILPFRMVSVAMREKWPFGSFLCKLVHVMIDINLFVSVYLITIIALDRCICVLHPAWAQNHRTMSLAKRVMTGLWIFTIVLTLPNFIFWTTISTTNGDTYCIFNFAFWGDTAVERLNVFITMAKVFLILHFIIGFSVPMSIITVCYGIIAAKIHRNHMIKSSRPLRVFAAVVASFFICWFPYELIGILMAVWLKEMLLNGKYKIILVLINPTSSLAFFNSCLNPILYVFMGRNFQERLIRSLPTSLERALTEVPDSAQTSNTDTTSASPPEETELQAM

human FPRL1 (FPR-like 1) [10] = molecular target: T3, human FPRL1 (FPR-like 1); assay: competition radioligand binding on FPRL1-expressing CHO-K1 cells, tracer [125I]-WKYMVm
Method: as §1

[11] = molecular target: T4, human formyl peptide receptor-like 2 …; assay: competition binding on FPRL2-expressing CHO-K1 cells, tracer F2L-[125I]Tyr
Method: as §1
The EC50 and IC50 parameters of the dose-response curves were determined by non-linear regression using the Graphpad Prism software. The results represent the mean pEC50 or pIC50 (−Log values of EC50 or IC50 expressed in Mol/L) ± s.e.m. for at least three independent experiments (n).

human FPRL1 (FPR-like 1) [12] = molecular target: T3, human FPRL1 (FPR-like 1); assay: cell-based or functional assay; remark: listed apart in the source
[13] = molecular target: T4, human formyl peptide receptor-like 2 …; assay: binding assay on FPRL2-expressing CHO-K1 cells

## A1, about 6 kD peptide of porcine heme-binding protein purified from porcine spleen (from UniProt P80015)
[1]
  EC50, aequorin-based functional assay (native fraction A1): 200000 pM

## For-Met-Leu-Phe [FMLP (formyl-methionine-leucyl-phenylalanine)]
[2]
  EC50 (read off the curve), aequorin luminescence [FPR]: ~700 pM
[1]
  pEC50 (aequorin assay) (-Log of EC50 in Mol/L): < 6
  pEC50 (cAMP assay) (-Log of EC50 in Mol/L): < 6
[3]
  EC50 (read off the curve), inhibition of cAMP accumulation [FPR]: ~100 pM
[4]
  pEC50 (aequorin assay): 9.39 -Log of EC50 in Mol/L
  pEC50 (cAMP assay): 10.2 -Log of EC50 in Mol/L
Human FPRL1 (FPR-like 1) [5]
  pEC50 (aequorin assay): 5.94 -Log of EC50 in Mol/L
  pEC50 (cAMP assay): < 6 -Log of EC50 in Mol/L
[6]
  pIC50 (binding assay) (-Log of IC50 in Mol/L): < 6

B1: WKYMVm (peptide)
peptide: WKYMV[dM]
notes: Bought from Phoenix Pharmaceuticals; also called W-hexapeptide; synthetic W peptide
[2]
  EC50 (read off the curve), aequorin luminescence [FPR]: ~700 pM
Human FPRL1 (FPR-like 1) [7]
  EC50 (read off the curve), aequorin luminescence [FPRL1]: ~40 pM
[1]
  pEC50 (aequorin assay) (-Log of EC50 in Mol/L): < 6
  pEC50 (cAMP assay) (-Log of EC50 in Mol/L): < 6
[8]
  IC50 (read off the curve): ~70000 pM
[9]
  pEC50 (aequorin assay): < 6 -Log of EC50 in Mol/L
Human FPRL1 (FPR-like 1) [10]
  IC50 (read off the curve): ~20000 pM
[11]
  pIC50 (binding assay): < 6 -Log of IC50 in Mol/L

## MLWRRKIGPQMTLSHAAG (also called CCL23-derived SHAAG peptide) [SHAAG peptide derived from CCL23 N-terminus]
Human FPRL1 (FPR-like 1) [7]
  EC50 (read off the curve), aequorin luminescence [FPRL1]: ~500 pM
Human FPRL1 (FPR-like 1) [12]
  EC50 (read off the curve), inhibition of cAMP accumulation [FPRL1]: ~700 pM
[9]
  pEC50 (aequorin assay): < 6 -Log of EC50 in Mol/L
  pEC50 (cAMP assay): < 6 -Log of EC50 in Mol/L
[4]
  pEC50 (aequorin assay): < 6 -Log of EC50 in Mol/L
  pEC50 (cAMP assay): < 6 -Log of EC50 in Mol/L
Human FPRL1 (FPR-like 1) [5]
  pEC50 (aequorin assay): 9.27 -Log of EC50 in Mol/L
  pEC50 (cAMP assay): 9.23 -Log of EC50 in Mol/L
[11]
  pIC50 (binding assay): < 6 -Log of IC50 in Mol/L

B2: F2L[7-21] (peptide)
peptide: NSLFGSVETWPWQVL
notes: Synthetic; also called [7-21]F2L; truncated F2L variant lacking the first six aminoacids
[13]
  binding result: no binding
